Results as given in US20230365714A1 (published 2023).

Biological target: T1, human (Homo sapiens) ROR2, full length, on cells (human, UniProt Q01974 34-943)
T1 construct: also called human ROR2; CHO-ROR2
Assay: flow cytometry on ROR2-expressing tumor cell lines

T1 sequence (Q01974 34-943 limits assumed): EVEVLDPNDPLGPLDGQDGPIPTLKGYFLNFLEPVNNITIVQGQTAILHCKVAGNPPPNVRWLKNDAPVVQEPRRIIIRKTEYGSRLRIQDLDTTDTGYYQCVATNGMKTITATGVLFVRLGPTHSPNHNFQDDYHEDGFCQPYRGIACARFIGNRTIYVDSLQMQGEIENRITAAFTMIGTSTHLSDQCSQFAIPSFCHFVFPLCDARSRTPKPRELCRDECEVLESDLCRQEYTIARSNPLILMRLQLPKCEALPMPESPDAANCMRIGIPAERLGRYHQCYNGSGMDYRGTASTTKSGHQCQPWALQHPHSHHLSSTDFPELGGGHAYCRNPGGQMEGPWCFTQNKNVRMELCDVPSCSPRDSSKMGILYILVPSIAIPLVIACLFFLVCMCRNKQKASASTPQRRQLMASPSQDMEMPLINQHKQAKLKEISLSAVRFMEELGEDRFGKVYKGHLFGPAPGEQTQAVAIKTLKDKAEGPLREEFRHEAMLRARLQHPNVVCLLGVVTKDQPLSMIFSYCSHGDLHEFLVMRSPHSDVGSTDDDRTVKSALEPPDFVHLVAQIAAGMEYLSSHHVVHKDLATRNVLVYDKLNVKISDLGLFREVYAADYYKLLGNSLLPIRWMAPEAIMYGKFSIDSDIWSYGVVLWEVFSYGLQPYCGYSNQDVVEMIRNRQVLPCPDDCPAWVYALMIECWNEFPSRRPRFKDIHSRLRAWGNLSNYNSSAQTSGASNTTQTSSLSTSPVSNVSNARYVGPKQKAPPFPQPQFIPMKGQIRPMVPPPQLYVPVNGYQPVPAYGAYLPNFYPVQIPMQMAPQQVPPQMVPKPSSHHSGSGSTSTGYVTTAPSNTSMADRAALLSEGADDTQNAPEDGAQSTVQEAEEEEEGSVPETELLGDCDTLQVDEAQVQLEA

B1: bsIgG1-huCD3-H101G-FEAL×b12-FEAR (bispecific antibody)
heavy 1: not shown
light: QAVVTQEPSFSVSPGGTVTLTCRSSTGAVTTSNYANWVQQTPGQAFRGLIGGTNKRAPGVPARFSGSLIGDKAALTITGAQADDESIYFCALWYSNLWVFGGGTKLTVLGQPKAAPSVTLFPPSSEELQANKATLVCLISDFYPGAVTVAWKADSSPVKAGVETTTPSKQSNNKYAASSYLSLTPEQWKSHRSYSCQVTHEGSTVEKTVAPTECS
heavy 2: QVQLVQSGAEVKKPGASVKVSCQASGYRFSNFVIHWVRQAPGQRFEWMGWINPYNGNKEFSAKFQDRVTFTADTSANTAYMELRSLRSADTAVYYCARVGPYSWDDSPQDNYYMDVWGKGTTVIVSSASTKGPSVFPLAPSSKSTSGGTAALGCLVKDYFPEPVTVSWNSGALTSGVHTFPAVLQSSGLYSLSSVVTVPSSSLGTQTYICNVNHKPSNTKVDKRVEPKSCDKTHTCPPCPAPEFEGGPSVFLFPPKPKDTLMISRTPEVTCVVVAVSHEDPEVKFNWYVDGVEVHNAKTKPREEQYNSTYRVVSVLTVLHQDWLNGKEYKCKVSNKALPAPIEKTISKAKGQPREPQVYTLPPSREEMTKNQVSLTCLVKGFYPSDIAVEWESNGQPENNYKTTPPVLDSDGSFFLYSRLTVDKSRWQQGNVFSCSVMHEALHNHYTQKSLSLSPGK
VL: EIVLTQSPGTLSLSPGERATFSCRSSHSIRSRRVAWYQHKPGQAPRLVIHGVSNRASGISDRFSGSGSGTDFTLTITRVEPEDFALYYCQVYGASSYTFGQGTKLERK
notes: Control bispecific; also called bsIgG1-huCD3-H1010G-FEAL×b12-FEAR
binding result: no binding (tested: 0.014-30 µg/mL)
